{"source": "the supplement of paper PMC9112550", "about": "“Optimization of the antimicrobial peptide Bac7 by deep mutational scanning” (BMC Biology, 2022);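 also: peptides expressed intracellularly from a pBAD plasmid library in pooled LB shake-flask culture, induced with 0.3% L-arabinose, DNA abundance read by NGS, three biological replicates, DESeq2 with apeglm shrinkage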"}
{"system": "Escherichia coli TOP10", "test": "shrunken log2 fold change of peptide-encoding DNA abundance (4.5 h post-induction vs induction); higher = less antimicrobial activity (less host growth inhibition)", "conditions": "time post-induction: 4.5 h; library: site-saturation at positions 5, 18, 19, 20"}
{"sequence": "RRIRDRPPRLPRPRPRPNQKPRP", "shrunken log2 fold change": 0.18}
{"sequence": "RRIRVRPPRLPRPRPRPPYGPRP", "shrunken log2 fold change": 0.024}
{"sequence": "RRIRCRPPRLPRPRPRPHNQPRP", "shrunken log2 fold change": -0.565}
{"sequence": "RRIRIRPPRLPRPRPRPSDRPRP", "shrunken log2 fold change": -0.24}
{"sequence": "RRIRDRPPRLPRPRPRPIFEPRP", "shrunken log2 fold change": 0.419}
{"sequence": "RRIRKRPPRLPRPRPRPGETPRP", "shrunken log2 fold change": 0.476}
{"sequence": "RRIRGRPPRLPRPRPRPEPIPRP", "shrunken log2 fold change": 0.296}
{"sequence": "RRIRTRPPRLPRPRPRPPKNPRP", "shrunken log2 fold change": -0.0268}
{"sequence": "RRIRTRPPRLPRPRPRPTSQPRP", "shrunken log2 fold change": -0.00402}
{"sequence": "RRIRWRPPRLPRPRPRPFEPPRP", "shrunken log2 fold change": 1.2}
{"sequence": "RRIRQRPPRLPRPRPRPYRRPRP", "shrunken log2 fold change": 0.0231}
{"sequence": "RRIRYRPPRLPRPRPRPIDAPRP", "shrunken log2 fold change": -0.284}
{"sequence": "RRIRTRPPRLPRPRPRPGCVPRP", "shrunken log2 fold change": 0.0396}
{"sequence": "RRIRFRPPRLPRPRPRPVTAPRP", "shrunken log2 fold change": -0.0836}
{"sequence": "RRIRMRPPRLPRPRPRPQLMPRP", "shrunken log2 fold change": 0.0471}
{"sequence": "RRIRHRPPRLPRPRPRPISPPRP", "shrunken log2 fold change": -0.256}
{"sequence": "RRIRARPPRLPRPRPRPYKFPRP", "shrunken log2 fold change": -0.279}
{"sequence": "RRIRNRPPRLPRPRPRPMRDPRP", "shrunken log2 fold change": -0.00169}
{"sequence": "RRIRSRPPRLPRPRPRPVCHPRP", "shrunken log2 fold change": -0.388}
{"sequence": "RRIRNRPPRLPRPRPRPPHHPRP", "shrunken log2 fold change": -0.11}
{"sequence": "RRIRMRPPRLPRPRPRPWDDPRP", "shrunken log2 fold change": 0.533}
{"sequence": "RRIRQRPPRLPRPRPRPPDEPRP", "shrunken log2 fold change": 0.0836}
{"sequence": "RRIRCRPPRLPRPRPRPGLCPRP", "shrunken log2 fold change": 0.291}
{"sequence": "RRIRFRPPRLPRPRPRPGRWPRP", "shrunken log2 fold change": 0.653}
{"sequence": "RRIRLRPPRLPRPRPRPAYMPRP", "shrunken log2 fold change": -0.275}
{"sequence": "RRIRGRPPRLPRPRPRPDWPPRP", "shrunken log2 fold change": 0.566}
{"sequence": "RRIRQRPPRLPRPRPRPENNPRP", "shrunken log2 fold change": -0.331}
{"sequence": "RRIRARPPRLPRPRPRPCNAPRP", "shrunken log2 fold change": 0.0237}
{"sequence": "RRIRQRPPRLPRPRPRPNLCPRP", "shrunken log2 fold change": -0.00174}
{"sequence": "RRIRSRPPRLPRPRPRPMLRPRP", "shrunken log2 fold change": 0.123}
{"sequence": "RRIRSRPPRLPRPRPRPGQFPRP", "shrunken log2 fold change": -0.112}
{"sequence": "RRIRKRPPRLPRPRPRPIYMPRP", "shrunken log2 fold change": -0.0645}
{"sequence": "RRIRSRPPRLPRPRPRPGSQPRP", "shrunken log2 fold change": -0.492}
{"sequence": "RRIRKRPPRLPRPRPRPIHSPRP", "shrunken log2 fold change": -0.00784}
{"sequence": "RRIRYRPPRLPRPRPRPWFVPRP", "shrunken log2 fold change": -0.271}
{"sequence": "RRIRYRPPRLPRPRPRPCSWPRP", "shrunken log2 fold change": -0.272}
{"sequence": "RRIRIRPPRLPRPRPRPIPDPRP", "shrunken log2 fold change": -1.08}
{"sequence": "RRIRARPPRLPRPRPRPEGMPRP", "shrunken log2 fold change": 1.2}
{"sequence": "RRIRVRPPRLPRPRPRPGTAPRP", "shrunken log2 fold change": 0.136}
{"sequence": "RRIRMRPPRLPRPRPRPRFHPRP", "shrunken log2 fold change": 0.142}
{"sequence": "RRIRERPPRLPRPRPRPKWYPRP", "shrunken log2 fold change": -0.175}
{"sequence": "RRIRRRPPRLPRPRPRPIMYPRP", "shrunken log2 fold change": -0.186}
{"sequence": "RRIRTRPPRLPRPRPRPPFFPRP", "shrunken log2 fold change": 0.253}
{"sequence": "RRIRGRPPRLPRPRPRPMDRPRP", "shrunken log2 fold change": 0.156}
{"sequence": "RRIRWRPPRLPRPRPRPRHLPRP", "shrunken log2 fold change": 0.11}
{"sequence": "RRIRYRPPRLPRPRPRPYEPPRP", "shrunken log2 fold change": -0.248}
{"sequence": "RRIRDRPPRLPRPRPRPGQGPRP", "shrunken log2 fold change": 0.257}
{"sequence": "RRIRLRPPRLPRPRPRPDFGPRP", "shrunken log2 fold change": 0.153}
{"sequence": "RRIRERPPRLPRPRPRPRYAPRP", "shrunken log2 fold change": -0.118}
{"sequence": "RRIRTRPPRLPRPRPRPFNYPRP", "shrunken log2 fold change": -0.269}
{"sequence": "RRIRDRPPRLPRPRPRPNMEPRP", "shrunken log2 fold change": 0.0616}
{"sequence": "RRIRQRPPRLPRPRPRPMTCPRP", "shrunken log2 fold change": 0.0215}
{"sequence": "RRIRTRPPRLPRPRPRPEYYPRP", "shrunken log2 fold change": -0.855}
{"sequence": "RRIRERPPRLPRPRPRPYWRPRP", "shrunken log2 fold change": -0.0166}
{"sequence": "RRIRVRPPRLPRPRPRPNNQPRP", "shrunken log2 fold change": -0.483}
{"sequence": "RRIRPRPPRLPRPRPRPPGEPRP", "shrunken log2 fold change": 0.00468}
{"sequence": "RRIRDRPPRLPRPRPRPAWTPRP", "shrunken log2 fold change": -0.0791}
{"sequence": "RRIRFRPPRLPRPRPRPESEPRP", "shrunken log2 fold change": 0.0687}
{"sequence": "RRIRVRPPRLPRPRPRPWHRPRP", "shrunken log2 fold change": -0.145}
{"sequence": "RRIRIRPPRLPRPRPRPKLTPRP", "shrunken log2 fold change": 0.0656}
{"sequence": "RRIRWRPPRLPRPRPRPPMSPRP", "shrunken log2 fold change": 0.095}
{"sequence": "RRIRGRPPRLPRPRPRPADLPRP", "shrunken log2 fold change": 0.604}
{"sequence": "RRIRHRPPRLPRPRPRPACQPRP", "shrunken log2 fold change": 0.0463}
{"sequence": "RRIRLRPPRLPRPRPRPNNFPRP", "shrunken log2 fold change": -0.184}
{"sequence": "RRIRTRPPRLPRPRPRPFVPPRP", "shrunken log2 fold change": 2.01}
{"sequence": "RRIRIRPPRLPRPRPRPCRMPRP", "shrunken log2 fold change": -0.186}
{"sequence": "RRIRNRPPRLPRPRPRPRKRPRP", "shrunken log2 fold change": -0.0369}
{"sequence": "RRIRFRPPRLPRPRPRPRWTPRP", "shrunken log2 fold change": 1.19}
{"sequence": "RRIRGRPPRLPRPRPRPEKSPRP", "shrunken log2 fold change": 0.0928}
{"sequence": "RRIRGRPPRLPRPRPRPHEGPRP", "shrunken log2 fold change": 0.403}
{"sequence": "RRIRARPPRLPRPRPRPKCTPRP", "shrunken log2 fold change": 0.316}
{"sequence": "RRIRPRPPRLPRPRPRPISLPRP", "shrunken log2 fold change": -0.427}
{"sequence": "RRIRERPPRLPRPRPRPGQDPRP", "shrunken log2 fold change": -0.0237}
{"sequence": "RRIRMRPPRLPRPRPRPITEPRP", "shrunken log2 fold change": -0.012}
{"sequence": "RRIRCRPPRLPRPRPRPYWSPRP", "shrunken log2 fold change": -1.2}
